Drawing on paper PMC9482650, “Quantitative fragmentomics allow affinity mapping of interactomes” (Nature Communications, 2022), this text covers pKd for three molecules.

Numbering of substitutions follows the chain as printed.

In general, pKd refers to −log10 of the Kd, conventionally taken in molar units.

Holding throughout (assay): holdup assay
Parameters in all cases: key: below the threshold = too weak to quantify, mostly under pKd 3.1 to 4
Settings in all cases: plain residues with an end cap or a label only (N-terminal biotin on a linker: ado-ado)

The target of experiment [1] is T1, APBA2_2, Q99767.
T1 sequence (Q99767 654-744, limits assumed, looked up): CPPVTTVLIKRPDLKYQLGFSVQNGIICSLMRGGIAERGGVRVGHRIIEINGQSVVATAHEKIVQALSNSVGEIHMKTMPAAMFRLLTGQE

Experiment [2] deals with DLG1_2, Q12959.
Sequence of DLG1_2, Q12959 (Q12959 314-412): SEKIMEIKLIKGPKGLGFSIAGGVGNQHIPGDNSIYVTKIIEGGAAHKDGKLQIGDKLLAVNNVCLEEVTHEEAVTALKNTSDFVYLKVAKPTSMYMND
The target in experiment [3] is DLG1_3, Q12959.
Sequence of DLG1_3, Q12959 (Q12959 457-571): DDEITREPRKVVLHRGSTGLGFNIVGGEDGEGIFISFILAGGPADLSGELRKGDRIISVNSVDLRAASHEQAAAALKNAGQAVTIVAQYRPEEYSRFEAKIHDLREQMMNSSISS
Experiment [4] has as its target DLG4_3, P78352.
In experiment [5] the target is FRMPD2_1, Q68DX3.
Sequence of FRMPD2_1, Q68DX3 (Q68DX3 770-861): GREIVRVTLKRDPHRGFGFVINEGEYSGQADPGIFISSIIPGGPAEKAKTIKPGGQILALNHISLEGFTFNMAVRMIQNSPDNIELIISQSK
For experiment [6], the target named is T2, GRIP1_4, Q9Y3R0.
T2 sequence (Q9Y3R0 467-571, limits assumed, looked up): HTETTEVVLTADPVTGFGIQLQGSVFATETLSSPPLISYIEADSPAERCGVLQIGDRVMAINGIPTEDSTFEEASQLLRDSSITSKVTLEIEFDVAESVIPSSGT

The target of experiment [7] is T3, HTRA4, P83105.
T3 sequence (P83105 378-476, limits assumed, looked up): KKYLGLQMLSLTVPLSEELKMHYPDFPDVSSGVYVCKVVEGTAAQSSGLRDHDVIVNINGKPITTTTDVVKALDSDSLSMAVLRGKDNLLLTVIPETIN

Experiment [8] has as its target Inadl_6, Q8NI35.
Experiment [9] deals with LAP2, Q96RT1.
Sequence of LAP2, Q96RT1 (Q96RT1 other isoform, or with tags, fused parts or gaps): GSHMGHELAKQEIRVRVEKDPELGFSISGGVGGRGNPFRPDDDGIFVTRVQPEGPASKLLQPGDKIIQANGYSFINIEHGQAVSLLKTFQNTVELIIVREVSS
Experiment [10] deals with T4, LIN7B, Q9HAP6.
T4 sequence (Q9HAP6 88-185, limits assumed, looked up): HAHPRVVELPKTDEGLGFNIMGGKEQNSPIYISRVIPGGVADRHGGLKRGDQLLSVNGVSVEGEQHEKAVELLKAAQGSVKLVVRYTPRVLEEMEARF

For experiment [11], the target named is T5, LIN7C, Q9NUP9.
T5 sequence (Q9NUP9 88-185, limits assumed, looked up): T4 sequence (Q9HAP6 88-185, limits assumed, looked up) with A2S, D13E, V35I, V40I, Q65H, S79K, R89K, A96S

Experiment [12] deals with LNX1_3, Q8TBB1.
Sequence of LNX1_3, Q8TBB1 (Q8TBB1 500-596): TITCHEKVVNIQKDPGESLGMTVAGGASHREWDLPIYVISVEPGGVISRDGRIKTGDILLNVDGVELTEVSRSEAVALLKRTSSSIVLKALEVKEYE
Experiment [13] has as its target T6, LNX2_3, Q8N448.
T6 sequence (Q8N448 463-564, limits assumed, looked up): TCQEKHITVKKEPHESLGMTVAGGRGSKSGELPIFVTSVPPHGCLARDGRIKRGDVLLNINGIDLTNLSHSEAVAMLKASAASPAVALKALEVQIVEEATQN

For experiment [14], the target named is T7, NHERF3_4, Q5T2W1.
T7 sequence (Q5T2W1 373-468, limits assumed, looked up): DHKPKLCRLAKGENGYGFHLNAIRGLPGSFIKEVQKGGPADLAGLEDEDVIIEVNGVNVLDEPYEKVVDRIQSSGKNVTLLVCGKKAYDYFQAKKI

Experiment [15] addresses T8, PDZD2_2, O15018.
T8 sequence (O15018 329-429, limits assumed, looked up): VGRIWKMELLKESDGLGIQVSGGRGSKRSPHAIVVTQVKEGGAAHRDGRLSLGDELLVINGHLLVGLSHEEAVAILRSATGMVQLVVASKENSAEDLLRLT

Experiment [16] deals with T9, PDZRN3_1, Q9UPQ7.
T9 sequence (Q9UPQ7 244-349, limits assumed, looked up): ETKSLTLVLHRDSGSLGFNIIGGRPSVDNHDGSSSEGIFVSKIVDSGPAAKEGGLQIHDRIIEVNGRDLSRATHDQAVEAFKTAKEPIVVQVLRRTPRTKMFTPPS

Experiment [17] has as its target SCRIB_2, Q14160.
The target of experiment [18] is T10, SNTB1, Q13884.
T10 sequence (Q13884 107-205, limits assumed, looked up): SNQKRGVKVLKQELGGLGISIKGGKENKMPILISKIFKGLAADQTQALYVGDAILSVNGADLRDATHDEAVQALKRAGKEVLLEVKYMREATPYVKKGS

Experiment [19] has as its target TJP1_3, Q07157.
Experiment [20] deals with T11, ARHGAP21, Q5T5U3.
T11 sequence (Q5T5U3 45-169, limits assumed, looked up): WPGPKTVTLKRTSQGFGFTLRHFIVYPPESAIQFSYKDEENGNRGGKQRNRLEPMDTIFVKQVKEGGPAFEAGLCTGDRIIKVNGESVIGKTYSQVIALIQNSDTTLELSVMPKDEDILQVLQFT

Experiment [21] concerns the target Inadl_3, Q8NI35.
Experiment [22] deals with LNX1_2, Q8TBB1.
Sequence of LNX1_2, Q8TBB1 (Q8TBB1 371-470): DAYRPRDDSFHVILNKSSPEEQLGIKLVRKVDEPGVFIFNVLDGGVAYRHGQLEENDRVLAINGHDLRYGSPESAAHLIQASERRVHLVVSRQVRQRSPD
Experiment [23] concerns the target T12, SNTG2, Q9NY99.
T12 sequence (Q9NY99 68-166, limits assumed, looked up): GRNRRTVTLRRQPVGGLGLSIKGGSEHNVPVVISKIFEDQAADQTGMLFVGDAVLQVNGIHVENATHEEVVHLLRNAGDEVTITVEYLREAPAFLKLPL

Experiment [24] has as its target IL16_4, Q14005.
The target of experiment [25] is MAGI2_4, Q86UL8.
Sequence of MAGI2_4, Q86UL8 (Q86UL8 772-865): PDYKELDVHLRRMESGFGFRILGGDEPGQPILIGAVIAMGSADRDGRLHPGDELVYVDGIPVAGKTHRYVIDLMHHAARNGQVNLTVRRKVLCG

Sequence of DLG4_3, P78352 (P78352 306-403): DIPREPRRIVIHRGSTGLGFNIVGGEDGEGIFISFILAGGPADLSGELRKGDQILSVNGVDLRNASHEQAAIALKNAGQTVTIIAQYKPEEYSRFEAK
Sequence of Inadl_6, Q8NI35 (Q8NI35 1058-1167): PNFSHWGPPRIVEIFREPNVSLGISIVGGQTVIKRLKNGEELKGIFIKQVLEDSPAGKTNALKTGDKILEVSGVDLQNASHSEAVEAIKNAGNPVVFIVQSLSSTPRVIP
Sequence of SCRIB_2, Q14160 (Q14160 857-960): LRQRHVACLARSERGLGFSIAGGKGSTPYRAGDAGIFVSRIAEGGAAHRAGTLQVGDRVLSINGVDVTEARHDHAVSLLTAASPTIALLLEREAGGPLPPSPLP
Sequence of TJP1_3, Q07157 (Q07157 416-512): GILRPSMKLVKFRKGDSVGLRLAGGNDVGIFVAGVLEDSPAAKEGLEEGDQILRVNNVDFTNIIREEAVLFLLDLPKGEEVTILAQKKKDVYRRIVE
Sequence of Inadl_3, Q8NI35 (Q8NI35 359-469): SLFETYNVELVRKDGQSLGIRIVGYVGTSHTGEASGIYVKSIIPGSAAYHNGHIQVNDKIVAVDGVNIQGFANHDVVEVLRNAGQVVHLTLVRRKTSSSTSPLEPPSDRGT
Sequence of IL16_4, Q14005 (Q14005 1229-1329): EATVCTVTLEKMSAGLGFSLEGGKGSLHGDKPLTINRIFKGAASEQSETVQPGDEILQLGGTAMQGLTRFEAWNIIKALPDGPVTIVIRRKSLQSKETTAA

VYPNAKVELV [PDLIM4_iso2, P50479;P50479-1]: the negative-log Kd (pKd) entry in experiment [1], in experiment [2], in [3], in [4], in experiment [5] and in [6] was “below the threshold” in each case. The pKd in experiment [7] was 4.55; in experiment [8], “below the threshold”; in [9] it was “below the threshold”; in experiment [10], “below the threshold”; in [11] it was “below the threshold”; in experiment [12], “below the threshold”. In addition, the pKd result in experiment [13], in [14], in experiment [15], in experiment [16], in experiment [17] and in experiment [18] was “below the threshold” each time. In experiment [19], the pKd result is on record as “below the threshold”.

Take KSGKQTMLVV [TRIM29, Q14134;Q14134-2]: the pKd entry is “below the threshold” in experiment [1]; 4.14 in experiment [20]; “below the threshold” in [4]; “below the threshold” in experiment [6]; 4.14 in [7]; “below the threshold” in [21]. Further, the pKd entry in [8] is “below the threshold”; in experiment [9] it was “below the threshold”; in experiment [10] it was “below the threshold”; in [11], “below the threshold”; in experiment [22] it was 4.23; in [12] it was “below the threshold”. Further, the pKd entry in experiment [13], in [14], in experiment [15], in experiment [16], in [17] and in [18] was “below the threshold” in each case. Besides, the pKd entry in [23] was “below the threshold”.

In the case of YLEPVLSSEL [ATP2A2, P16615;P16615-3], the pKd entry in experiment [1], in [20], in experiment [2], in experiment [3], in [4] and in [5] was “below the threshold” throughout. The pKd entry in experiment [6], in experiment [7], in experiment [24], in [21], in experiment [8] and in [22] was “below the threshold” throughout. Moreover, the pKd result in experiment [12] was “below the threshold”; in experiment [13], “below the threshold”; in experiment [25] it was “below the threshold”; in experiment [14], 4.8; in experiment [15], 4.41; in experiment [18] it was “below the threshold”. Moreover, the pKd result in experiment [23] and in experiment [19] was “below the threshold” throughout.
